Results reported in paper PMC9986795, “Structural basis of DNA binding by YdaT, a functional equivalent of the CII repressor in the cryptic prophage CP-933P from Escherichia coli O157:H7” (Acta Crystallographica. Section D, Structural Biology, 2023).

Biological target: the molecule itself
Assay: crystal structure; sitting drop, 0.1 M bis-Tris pH 5.5, 2.0 M ammonium sulfate, 19°C; free YdaT, a tetramer in the asymmetric unit, 2.4 Å

B1: YdaT from the cryptic prophage CP-933P of Escherichia coli O157:H7 (wild-type YdaT) (natural protein)
chain: KIKHEHIRMAMNVWAHPDGEKVPAAKITKAYFELGMTFPELYDDSHPEALARNTQKIFRWLDKDTPDAVEKMQALLPAIEKAMPPLLVARMRSHSSEYYREIVERRDRLVKDVDDFVASAVVLYDQMNRGGPAGNAVVMH
notes: YdaT, E. coli O157:H7 prophage CP-933P, open reading frame in pET-28b; also called CP-933P YdaT; full-length protein
  stoichiometry N: 4
